Positions count from the first letter of the chain named. Numbers in names are those of the source.
B1: C.Esp1396I wild type (RM controller protein) (natural protein)
chain: MESFLLSKVSFVIKKIRLEKGMTQEDLAYKSNLDRTYISGIERNSRNLTIKSLELIMKGLEVSDVVFFEMLIKEILKHD
notes: controller (C) protein C.Esp1396I of the Esp1396I restriction-modification system; Residues may be left at the N-terminus after thrombin cleavage; also called native protein; WT; not shown: His6, N-terminal, cleaved
B2: C.Esp1396I Y37F mutant (natural protein)
chain: B1 chain with Y37F
notes: controller (C) protein C.Esp1396I with Y37F; Gene synthesised by GenScript; not shown: His6, N-terminal, cleaved
B3: C.Esp1396I T36A mutant (natural protein)
chain: B1 chain with T36A
notes: controller (C) protein C.Esp1396I with T36A; not shown: His6, N-terminal, cleaved
B4: C.Esp1396I Y37A mutant (natural protein)
chain: B1 chain with Y37A
notes: controller (C) protein C.Esp1396I with Y37A; Gene synthesised by GenScript; not shown: His6, N-terminal, cleaved
B5: C.Esp1396I R46A mutant (natural protein)
chain: B1 chain with R46A
notes: controller (C) protein C.Esp1396I with R46A; Crystallised in two space groups (C2 and P3(2)); not shown: His6, N-terminal, cleaved
B6: C.Esp1396I S52A mutant (natural protein)
chain: B1 chain with S52A
notes: controller (C) protein C.Esp1396I with S52A; Gene synthesised by GenScript; not shown: His6, N-terminal, cleaved

Columns and labels:
[1] = test system: C.Esp1396I wild type (Enterobacter sp. RFL1396?); assay: SPR; conditions: SPR (Biacore T-100): 130 mM NaCl, 10 mM HEPES pH 7.4, 0.05% Tween-20; temperature not stated; 20-1000 nM total protein
[2] = test system: C.Esp1396I Y37A (Enterobacter sp. RFL1396?); assay: SPR; conditions: SPR (Biacore T-100): 130 mM NaCl, 10 mM HEPES pH 7.4, 0.05% Tween-20; temperature not stated; 20-1000 nM total protein
[3] = test system: C.Esp1396I R46A (Enterobacter sp. RFL1396?); assay: SPR; conditions: SPR (Biacore T-100): 130 mM NaCl, 10 mM HEPES pH 7.4, 0.05% Tween-20; temperature not stated; 20-1000 nM total protein
[4] = test system: C.Esp1396I Y37F (Enterobacter sp. RFL1396?); assay: SPR; conditions: SPR (Biacore T-100): 130 mM NaCl, 10 mM HEPES pH 7.4, 0.05% Tween-20; temperature not stated; 20-1000 nM total protein
[5] = test system: C.Esp1396I S52A (Enterobacter sp. RFL1396?); assay: SPR; conditions: SPR (Biacore T-100): 130 mM NaCl, 10 mM HEPES pH 7.4, 0.05% Tween-20; temperature not stated; 20-1000 nM total protein
[6] = target: the molecule itself; assay: crystal structure; free protein crystals, protein at 2-14 mg/mL, diffraction data at 100 K; dimer of the protein with itself

| Molecule | binding result [6] | also measured |
| --- | --- | --- |
| OM operator duplex | – | Kd [1]: 0.51 nM; Kd [2]: 5.5 nM; Kd [3]: 15.8 nM; Kd [4]: 1.8 nM; Kd [5]: 2.6 nM |
| B1 | binds | – |
| B2 | binds | – |
| B3 | binds | – |
| B4 | binds | – |
| B5 | binds | – |
| B6 | binds | – |
